In article PMC4725753:

Biological target: the microbial proteins (competition ELISA with heparin, data not shown)
Test: ELISA; data not shown; immobilised microbial proteins incubated with vitronectin (5 μg/ml) that was pre-incubated with heparin (10 μM)

vitronectin purified from human plasma (natural protein)
percent inhibition by heparin (10 μM): 68 to 89%
